Substitutions are numbered along the chain they refer to.

Results on 2 molecules are retold here after patent US20210214460A1 (AstraZeneca / MedImmune, published 2021).

Test [1] deals with T1, cynomolgus monkey BCMA stably expressed on Ad293 cells (cynomolgus monkey, UniProt A0A2K5UD97 1-183).
T1 construct: whole, on cells; also called cynoBCMA; Cyno BCMA
In words: FACS on Ad293 cells stably expressing cynomolgus BCMA, Alexa Fluor 647 secondary antibody, raw MFI (geo mean). As to the method: (§1) Antibodies 4679, 756, and 15B2GL (as described below) were analyzed by FACS to evaluate binding of antibodies to human BCMA, cynomolgus monkey BCMA, TACI, and BAFF-R using recombinant forms of the receptors stably expressed on Ad293 cells. Binding assays were performed by incubating antibodies 4679, 756, and 15B2GL with 200,000 cells at 4° C. for 45 minutes followed by two washes with PBS+2% FBS. Cells were then incubated with Alexa-Fluor® 647-labeled secondary antibodies at 4° C., followed by two washes in PBS+2% FBS. Anti-BAFF-R, anti-TACI, and anti-human BCMA-APC labeled antibodies were added according to manufacturer's recommended dilution in control wells. Cells were resuspended in 200 uL PBS+2% FBS+DAPI and antibody binding to live cells was analyzed using a Becton Dickinson™ Biosciences LSRII cytometer.

Test [2] addresses T2, membrane-bound human BCMA (human, UniProt Q02223 1-184).
T2 construct: whole, on cells; also called huBCMA
T2 sequence (looked up): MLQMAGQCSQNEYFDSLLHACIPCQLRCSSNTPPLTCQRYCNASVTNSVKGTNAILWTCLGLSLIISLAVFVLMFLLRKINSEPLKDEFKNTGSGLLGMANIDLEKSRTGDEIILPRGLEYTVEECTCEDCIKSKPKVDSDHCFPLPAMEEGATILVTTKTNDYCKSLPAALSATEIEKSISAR
In words: flow cytometry on MM.1S cells (endogenous BCMA), printed as apparent affinity. As to the method: (§2) Binding of 15B2GL, I09, L15, and J6M0 to membrane-bound human BCMA was evaluated using flow cytometry in multiple myeloma and plasma cell leukemia cell lines that endogenously express BCMA (NCI-H929 and MM.1S, respectively). Binding of 15B2GL, 109, L15 to membrane-bound human BCMA was also evaluated in Ad293 cells expressing human BCMA. Binding assays were performed by incubating the anti-BCMA antibodies with 200,000 cells for 30 minutes at 4° C. followed by two washes with PBS+2% FBS (FACS Buffer). A range of antibody concentrations were evaluated using a 12-point, 3-fold dilution series. Cells were then incubated with 5 ug/mL goat-anti human IgG-AF647 secondary antibodies (Thermo Fisher Scientific, Waltham, Mass.) at 4° C., followed by two washes in PBS+2% FBS. Cells were resuspended in 200 uL PBS+2% FBS+DAPI.
(§3) Fluorescence of live, single cells was measured using a BD Biosciences LSRII cytometer and BD FACSDiva™ software (BD Biosciences, San Jose, Calif.). Data were analyzed using FlowJo™ software (FlowJo, LLC, Ashland, Oreg.). Mean fluorescence intensity values were used to determine percentage bound and EC50 was determined using Prism™ software (GraphPad Software Inc, La Jolla, Calif.).
For orientation: Flow cytometry measures light scatter and fluorescence of single cells or particles in a stream.

The target in test [3] is T3, BAFF-R stably expressed on Ad293 cells (Homo sapiens (Human), UniProt Q96RJ3 1-184).
T3 sequence: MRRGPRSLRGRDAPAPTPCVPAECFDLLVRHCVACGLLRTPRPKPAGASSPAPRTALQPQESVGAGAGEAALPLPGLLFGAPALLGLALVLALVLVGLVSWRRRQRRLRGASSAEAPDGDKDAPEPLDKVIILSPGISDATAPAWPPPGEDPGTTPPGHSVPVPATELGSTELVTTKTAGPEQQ
The experiment in a line: FACS on Ad293 cells stably expressing BAFF-R, Alexa Fluor 647 secondary antibody, raw MFI (geo mean). Here is the method:
as §1

Test [4] has as its target T4, TACI stably expressed on Ad293 cells (Homo sapiens (Human), UniProt O14836 1-293).
T4 sequence: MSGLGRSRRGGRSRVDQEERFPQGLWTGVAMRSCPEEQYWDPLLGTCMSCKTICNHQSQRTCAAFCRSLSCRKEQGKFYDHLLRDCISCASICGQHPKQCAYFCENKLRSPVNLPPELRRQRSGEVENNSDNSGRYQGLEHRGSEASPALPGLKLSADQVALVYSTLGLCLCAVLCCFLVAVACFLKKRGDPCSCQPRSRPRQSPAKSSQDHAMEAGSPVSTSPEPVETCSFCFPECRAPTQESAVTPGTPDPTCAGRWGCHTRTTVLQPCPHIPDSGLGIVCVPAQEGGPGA
The experiment in a line: FACS on Ad293 cells stably expressing TACI, Alexa Fluor 647 secondary antibody, raw MFI (geo mean). As to the method: as §1

For test [5], the target named is T2, membrane-bound human BCMA. In words: flow cytometry on Ad293 cells expressing human BCMA, printed as apparent affinity. As to the method: as §2, §3
The target of test [6] is T5, monomeric human sBCMA (GenScript) (human, UniProt Q02223 1-54).
T5 construct: extracellular domain; also called monomeric BCMA; monomeric (soluble) BCMA
T5 sequence (looked up): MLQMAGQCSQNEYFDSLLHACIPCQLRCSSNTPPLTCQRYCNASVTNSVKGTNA
The experiment in a line: SPR (ProteOn XPR36), antibody captured by anti-Fc, sBCMA 100-6.25 nM as analyte. As to the method:
The binding of 15B2GL monoclonal antibody and optimized clones I09, L15, P10, N22, and M02 (described in Example 1) was assessed using monomeric human sBCMA (GenScript, Piscataway, N.J.) using a ProteOn™ XPR36 instrument (Bio-Rad, Hercules, Calif.). The binding of J6M0 also was assessed for comparison. Standard amine coupling was used to immobilize 25 μg/ml anti-Fc polyclonal antibody (Jackson ImmunoResearch, West Grove, Pa.) prepared in 10 mM sodium acetate buffer (pH 4.5) to the surface of a ProteOn™ GLC biosensor chip (Bio-Rad, Hercules, Calif.) pre-activated with 20 mM EDAC (1-ethyl-3-(3-dimethylaminopropyl)carbodiimide hydrochloride) and 5 mM Sulfo-NHS (N-hydroxysulfosuccinimide) at a density of ˜200-600 resonance units (RU). 15B2GL, I09, L15, P10, N22, M02, and J6M0 were subsequently injected at a concentration of 1 μg/ml for capture by the immobilized anti-Fc polyclonal antibody. The sensorgram was recorded by flowing two-fold serial dilutions of sBCMA prepared in PBS (pH 7.4) with 0.005% (v/v) Tween®-20, ranging from 100-6.25 nM, over the captured surface for 150 seconds at 75 μL/minute with dissociation time of 600 seconds. ProteOn™ data analysis software was used to analyze the data.

Test [7] has as its target T2, membrane-bound human BCMA. The experiment in a line: flow cytometry on NCI-H929 cells (endogenous BCMA), printed as apparent affinity. Here is the method: as §2, §3
The target in test [8] is T2, membrane-bound human BCMA. In words: FACS on Ad293 cells stably expressing human BCMA, Alexa Fluor 647 secondary antibody, raw MFI (geo mean). As to the method:
as §1

T1 sequence (A0A2K5UD97 entry or part of it): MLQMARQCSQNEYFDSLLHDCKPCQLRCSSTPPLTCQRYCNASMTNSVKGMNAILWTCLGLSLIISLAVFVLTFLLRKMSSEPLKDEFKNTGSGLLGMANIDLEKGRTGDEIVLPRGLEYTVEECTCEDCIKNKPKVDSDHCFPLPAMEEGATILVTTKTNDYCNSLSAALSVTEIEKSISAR

B1: 15B2GL monoclonal antibody (antibody, V domains shown)
VH: EVQLVESGGGLVKPGGSLRLSCAASGFTFRSYSMNWVRQAPGKGLEWVSSISGSSNYIYYADSVKGRFTISRDNAKNSLYLQMNSLRAEDTAVYYCARGGNYYVEYFQYWGQGTLVTVSS
VL: EIVLTQSPGTLSLSPGERATLSCRASQYISSNYLAWYQQKPGQAPRLLIYGASNRATGIPDRFSGSGSGTDFTLTISRLEPEDFAVYYCQQYGSSPITFGQGTKLEIK
notes: Clone 15B2 was converted into human IgG1 and germlined at four residues (15B2GL); also called germlined 15B2
The EC50 (read off the curve) is the concentration at which the effect is half-maximal. As a reminder, the EC50 is the concentration at which the effect is half-maximal. As a reminder, the Kd is a measure of binding affinity in units of concentration. In the case of B1, the “EC50 (read off the curve)” value in test [1] is roughly 1 µg/mL; in test [8], roughly 0.6 µg/mL. The EC50 in test [2] worked out at 2.56 nM; in test [5] it was 3.87 nM; in test [7] it was 3.14 nM. The binding result in test [3] and in test [4] was “no binding (tested: 100 ug/mL)” each time. This molecule also registered a Kd in test [6] of 60.7 nM.

B2: L15 (lead optimized clone of 15B2GL) (antibody, V domains shown)
VH: B1 VH with R30S, S54Q, Y103F
VL: B1 VL with Y33N, G93A, S94D
notes: Cloned into an IgG mammalian expression vector ("Maia") designed for ADC conjugation
With B2, the EC50 stood at 4.2 nM in test [2], 4.48 nM in test [5] and 4.2 nM in test [7]. For the same molecule, the affinity in test [6], expressed as Kd, was 4.5 nM.
